Experimental data from patent US20240100176A1 (Eli Lilly, published 2024).

T1: human FcγRIIA_131H (CD32a) extracellular domain (human, UniProt P12318 34-217)
T1 construct: extracellular domain
T1 sequence (looked up): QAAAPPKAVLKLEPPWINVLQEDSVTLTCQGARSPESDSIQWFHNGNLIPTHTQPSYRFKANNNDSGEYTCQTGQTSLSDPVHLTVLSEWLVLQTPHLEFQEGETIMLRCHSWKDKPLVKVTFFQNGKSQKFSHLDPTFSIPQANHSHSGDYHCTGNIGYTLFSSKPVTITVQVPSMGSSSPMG

T2: human FcγRIIA_131R (CD32a) extracellular domain (human, UniProt P12318 34-217)
T2 construct: extracellular domain
T2 sequence (looked up): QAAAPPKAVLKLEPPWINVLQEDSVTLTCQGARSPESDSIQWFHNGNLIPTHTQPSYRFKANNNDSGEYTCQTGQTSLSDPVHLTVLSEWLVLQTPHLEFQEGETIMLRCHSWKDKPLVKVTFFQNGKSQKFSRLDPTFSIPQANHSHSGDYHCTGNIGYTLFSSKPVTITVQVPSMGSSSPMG


Legend:
[1] = molecular target: T3, hexahistidine tagged human IL-4Rα ECD Q181R (human, UniProt P24394 26-232); test: capture ELISA: Ab1 on anti-human IgG Fc, His-tagged receptor at 0.2 µg/mL, anti-His HRP
T3 construct: not shown: hexahistidine tag
T3 sequence (P24394 26-232 Q206R): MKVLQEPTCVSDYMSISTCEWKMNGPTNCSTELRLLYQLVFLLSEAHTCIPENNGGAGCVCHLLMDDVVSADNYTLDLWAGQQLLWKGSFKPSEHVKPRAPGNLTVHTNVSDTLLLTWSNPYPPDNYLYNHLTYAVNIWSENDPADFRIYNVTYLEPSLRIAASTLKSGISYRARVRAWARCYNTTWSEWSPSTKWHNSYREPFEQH
Description: (§1) Example 2d. […] Briefly, thirty surface amino acid residue substitutions were introduced individually into hexahistidine tagged human IL-4Rα extra cellular domain (ECD) as follows: K2D, E6R, K22D, P26R, T31R, F41A, L42G, L43G, E45R, E52R, G56R, D66R, A71R, Q82G, K87D, E94R, H107A, D108R, P124R, D125R, D143R, R148D, L155R, R160D, S164R, S168R, Q181R, P192R, K195D, or H197G. Each mutant protein having a single amino acid residue substitution as described above was transiently expressed in CHO cells and purified using standard immobilized metal affinity chromatography techniques. […] The plates were then washed 3 times with PBST and the exemplified human IL-4Rα antibody was added to the wells at a final concentration of 1 μg/mL in PBS-casein and incubated for 1 hour at room temperature. The plates were washed 3 times with PBST, the IL-4Rα mutant proteins were serially diluted 5-fold from 1 μg/mL for 3 points. in PBS-casein and added to the plate at 50 μL/well and incubated for 1 hour at room temperature. The plates were washed 3 times with PBST and a 1000-fold dilution of anti-histidine tag antibody HRP conjugate (R&D Systems, Cat. #MAB050H) in PBS-casein was added and incubated for 45 minutes at room temperature. The plates were washed 3 times, TMB substrate (Pierce, Cat. #34028) was added per manufacturer instructions, the reaction was quenched with H₂SO₄, and absorbance was read at 450 nm on an ELISA plate reader.

[2] = molecular target: T4, hexahistidine tagged human IL-4Rα ECD E6R (human, UniProt P24394 26-232); test: as above
T4 construct: not shown: hexahistidine tag
T4 sequence (P24394 other isoform, or with tags, fused parts or gaps): as the sequence (P24394 26-232 Q206R) above, with E6R, R181Q counted along it
Description: as §1

[3] = molecular target: T5, hexahistidine tagged human IL-4Rα ECD A71R (human, UniProt P24394 26-232); test: as above
T5 construct: not shown: hexahistidine tag
T5 sequence (P24394 26-232 A96R): as the sequence (P24394 26-232 Q206R) above, with A71R, R181Q counted along it
Description: as §1

[4] = molecular target: T6, hexahistidine tagged human IL-4Rα ECD F41A (human, UniProt P24394 26-232); test: as above
T6 construct: not shown: hexahistidine tag
T6 sequence (P24394 26-232 F66A): as the sequence (P24394 26-232 Q206R) above, with F41A, R181Q counted along it
Description: as §1

[5] = molecular target: T7, hexahistidine tagged human IL-4Rα ECD E52R (human, UniProt P24394 26-232); test: as above
T7 construct: not shown: hexahistidine tag
T7 sequence (P24394 26-232 E77R): as the sequence (P24394 26-232 Q206R) above, with E52R, R181Q counted along it
Description: as §1

[6] = molecular target: T8, hexahistidine tagged human IL-4Rα ECD T108R (human, UniProt P24394 26-232); test: capture ELISA: Ab1 on anti-human IgG Fc, His-tagged receptor at 0.04 µg/mL, anti-His HRP
T8 construct: also called D108R; not shown: hexahistidine tag

[7] = molecular target: T1, human FcγRIIA_131H (CD32a) …; test: SPR (Biacore), antibody captured on protein A, FcγR ECD as analyte, steady state, 25 °C
Procedure: (§2) Unreacted sites were blocked with a 7 minute injection of ethanolamine at 10 μL/minute. Injections of 2×10 μL of glycine, pH 1.5, was used to remove any noncovalently associated protein. Running buffer was 1×HBS-EP+(TEKNOVA, P/N H8022). The FcγR extracellular domains (ECDs)-FcγRI (CD64), FcγRIIA_131R, and FcγRIIA_131H (CD32a), FcγRIIIA_158V, FcγRIIIA_158F (CD16a), and FcγRIIb (CD32b) were produced from stable CHO cell expression and purified using IgG Sepharose and size exclusion chromatography. For FcγRI binding, antibodies were diluted to […] in running buffer, and approximately 150 RU of each antibody was captured in FCs 2 through 4 (RU captured). FC1 was the reference FC, therefore no antibody was captured in FC1. […] Duplicate injections of each concentration were injected over all FCs at 40 μL/minute for 120 seconds followed by a 1200 second dissociation phase. Regeneration was performed by injecting 15 μL of 10 mM glycine, pH 1.5, at 30 μL/minute over all FCs. Reference-subtracted data was collected as FC2 FC1, FC3-FC1, and FC4-FC1 and the measurements were obtained at 25° C. The affinity (KD) was calculated using either steady state equilibrium analysis with the Scrubber 2 Biacore Evaluation Software or a “1:1 (Langmuir) binding” model in BIA Evaluation. For FcγRIIa, FcγRIIb, and FcγRIIIa binding, antibodies were diluted to 5 μg/mL in running buffer, and approximately 500 RU of each antibody was captured in FCs 2 through 4). FC1 was the reference FC. […] Duplicate injections of each concentration were injected over all FCs at 40 μL/minute for 60 seconds followed by a 120 second dissociation phase. Regeneration was performed by injecting 15 μL of 10 mM glycine, pH 1.5, at 30 μL/minute over all FCs. Reference-subtracted data was collected as FC2-FC1, FC3-FC1, and FC4-FC1, and the measurements were obtained at 25° C. The affinity (KD) was calculated using the steady state equilibrium analysis with the Scrubber 2 Biacore Evaluation Software. Each receptor was assayed at least two times.

[8] = molecular target: T9, human FcγRIIIA_158V (CD16a) extracellular domain (human, UniProt P08637 17-208); test: as above
T9 construct: extracellular domain
T9 sequence (P08637 17-208 F176V): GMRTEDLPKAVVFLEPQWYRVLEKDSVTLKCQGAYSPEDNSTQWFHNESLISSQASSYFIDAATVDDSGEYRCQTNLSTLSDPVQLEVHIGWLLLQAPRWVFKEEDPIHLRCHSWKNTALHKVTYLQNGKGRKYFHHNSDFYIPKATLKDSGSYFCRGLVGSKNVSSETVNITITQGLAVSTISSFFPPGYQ
Procedure: as §2

[9] = molecular target: T2, human FcγRIIA_131R (CD32a) …; test: as above
Procedure: as §2

| Binder | ELISA (OD450) [1] [OD450] | ELISA (OD450) [2] [OD450] | ELISA (OD450) [3] [OD450] | ELISA (OD450) [4] [OD450] | ELISA (OD450) [5] [OD450] | ELISA (OD450) [6] [OD450] | Kd [7] [µM] | Kd [8] [µM] | Kd [9] [µM] |
| --- | --- | --- | --- | --- | --- | --- | --- | --- | --- |
| anti-human IL-4Rα antibody Ab1 (antibody, human IgG4 S228P, kappa, human kappa light chain; also called anti-human IL-4Rα Ab1; unconjugated Ab1) heavy: QVQLVESGGGLVQPGGSLRLSCVASGFTFSHSSMNWVRQAPGKGLEWVSYISRATGAVYYADSVKGRFTISRDNAKNSLYLQMNSLRDEDTAVYYCAREPVFDYWGQGTLVTVSSASTKGPCVFPLAPCSRSTSESTAALGCLVKDYFPEPVTVSWNSGALTSGVHTFPAVLQSSGLYSLSSVVTVPSSSLGTKTYTCNVDHKPSNTKVDKRVESKYGPPCPPCPAPEFLGGPSVFLFPPKPKDTLMISRTPEVTCVVVDVSQEDPEVKFNWYVDGVEVHNAKTKPREEQFNSTYRVVSVLTVLHQDWLNGKEYKCKVSNKGLPSSIEKTISKAKGQPREPQVYTLPPSREEMTKNQVSLTCLVKGFYPSDICVEWESNGQPENNYKTTPPVLDSDGSFFLYSRLTVDKSRWQQGNVFSCSVMHEALHNHYTQKSLSLSLG light: DIQMTQSPSAMSASVGDRVTITCRASQDISNYLAWFQQKPGKVPTRLIYAASSLQSGVPSRFSGSGSGTEFTLTISSLQPEDFATYYCLQWSSYPRTFGQGTKVEIKRTVAAPSVFIFPPSDEQLKSGTASVVCLLNNFYPREAKVQWKVDNALQSGNSQESVTEQDSKDSTYSLSSTLTLSKADYEKHKVYACEVTHQGLSSPVTKSFNRGEC | 1.71 | 1.5 | 1.57 | 1.54 | 1.71 | 1.41 |  |  |  |
| anti-human IL-4Rα Ab1 GC conjugate of Example 1b (n=4) (antibody, human IgG4 S228P, kappa, glucocorticoid receptor agonist payload-linker (GC-L, Preparation 8) conjugated to the engineered cysteines at the 124 and 378 position of the heavy chain (EU numbering); n is 4 (average DAR 4.17 by RP-HPLC, 3.85 by TOF MS)) heavy: QVQLVESGGGLVQPGGSLRLSCVASGFTFSHSSMNWVRQAPGKGLEWVSYISRATGAVYYADSVKGRFTISRDNAKNSLYLQMNSLRDEDTAVYYCAREPVFDYWGQGTLVTVSSASTKGPCVFPLAPCSRSTSESTAALGCLVKDYFPEPVTVSWNSGALTSGVHTFPAVLQSSGLYSLSSVVTVPSSSLGTKTYTCNVDHKPSNTKVDKRVESKYGPPCPPCPAPEFLGGPSVFLFPPKPKDTLMISRTPEVTCVVVDVSQEDPEVKFNWYVDGVEVHNAKTKPREEQFNSTYRVVSVLTVLHQDWLNGKEYKCKVSNKGLPSSIEKTISKAKGQPREPQVYTLPPSREEMTKNQVSLTCLVKGFYPSDICVEWESNGQPENNYKTTPPVLDSDGSFFLYSRLTVDKSRWQQGNVFSCSVMHEALHNHYTQKSLSLSLG light: DIQMTQSPSAMSASVGDRVTITCRASQDISNYLAWFQQKPGKVPTRLIYAASSLQSGVPSRFSGSGSGTEFTLTISSLQPEDFATYYCLQWSSYPRTFGQGTKVEIKRTVAAPSVFIFPPSDEQLKSGTASVVCLLNNFYPREAKVQWKVDNALQSGNSQESVTEQDSKDSTYSLSSTLTLSKADYEKHKVYACEVTHQGLSSPVTKSFNRGEC |  |  |  |  |  |  | 3.65 | 4.92 | 1.82 |
